Laboratory results reported in paper PMC6105031, “The crystal structure of KSHV ORF57 reveals dimeric active sites important for protein stability and function” (PLoS Pathogens, 2018).

Experiments:
[1] = molecular target: GFP-tagged full-length ORF57 with all three disrupted nuclear localization signals (ORF57 mt1+2+3) (UniProt Q2HR75); test: nuclear translocation assay (fluorescence microscopy of cotransfected cells)
[2] = molecular target: the molecule itself; test: crystal structure; spindle-shaped crystal, sitting-drop vapor diffusion at 4°C, 0.1 M BIS-TRIS propane pH 7.0, 0.8 M lithium sulfate; space group P6(4)22, two molecules in the asymmetric unit, 3.5 Å
[3] = COS-1 cells, 50 double-color positive cells counted, parent: 88

Molecule | other: % cells with nuclear translocation [1, 3] | other results
FLAG-tagged full-length ORF57 (from UniProt Q2HR75) C333S; H423L; C427S; C432S | – | other: % cells with nuclear translocation ([1]; n=50): 0%
FLAG-tagged full-length ORF57 (from UniProt Q2HR75) R325A; R327A | 4% | –
FLAG-tagged full-length ORF57 (from UniProt Q2HR75) W292P | 0% | –
C-terminal domain (CTD) of KSHV ORF57 (residues 167 to 455) (domain or fragment, KSHV ORF57 (MTA), residues 167 to 455, GenBank ABD28908.1; Crystallised as a dimer (spindle-shaped crystal) and as a monomer (cubic crystal, 4.0 M LiCl); also called ORF57-CTD; source: E. coli BL21 (DE3), purified (Ni-NTA, ULP1 digestion, Superdex 75); not shown: His6, N-terminal, cleaved; SUMO (Smt3 of Saccharomyces cerevisiae), N-terminal, cleaved) GVSDAVKKLRLPASMIIDGESPRFDDSIIPRHHGACFNVFIPAPPSHVPEVFTDRDITALIRAGGKDDELINKKISAKKIDHLHRQMLSFVTSRHNQAYWVSCRRETAAAGGLQTLGAFVEEQMTWAQTVVRHGGWFDEKDIDIILDTAIFVCNAFVTRFRLLHLSCVFDKQSELALIKQVAYLVAMGNRLVEACNLLGEVKLNFRGGLLLAFVLTIPGMQSRRSISARGQELFRTLLEYYRPGDVMGLLNVIVMEHHSLCRNSECAAATRAAMGSAKFNKGLFFYPLS | – | stoichiometry N [2]: 2
